Legend:
[1] = target: soluble mouse FcRn, GST-tagged (mFcRn heavy chain ectodomains with human β2-microglobulin) (mouse | human) (UniProt Q61559); experiment: SPR
[2] = target: soluble human FcRn, GST-tagged (hFcRn heavy chain ectodomains with human β2-microglobulin) (human) (UniProt P55899); experiment: SPR

KD1 (heterogeneous ligand model) [1] [nM] | KD2 (heterogeneous ligand model) [1] [nM] | KD1 (heterogeneous ligand model) [2] [nM] | KD2 (heterogeneous ligand model) [2] [nM] | Substance
80.9 | 400 |  |  | anti-CEA cT84.66 scFv-Fc H435Q (Fc fusion)
1.8 | 122 | 9.4 | 197 | anti-CEA cT84.66 scFv-Fc H435R (Fc fusion)
 | 43.8 |  |  | anti-CEA cT84.66 scFv-Fc WT (nonmutated) (Fc fusion)
